In paper PMC12149299 (2025) one finds Kd data, which are given here for 1 molecule.

Assay [1] deals with HIV-1 gp120 protein from the JRCSF.JB strain (HIV-1, UniProt P20871 32-503). The assay is described as follows: BLI.
Assay [2] addresses HIV-1 gp120 protein from the YU2.DG strain (HIV-1, UniProt P35961 32-498). The experiment in a line: BLI. Background: Biolayer interferometry detects binding as a change in optical thickness at a sensor tip.

B1: FD22 (antibody)
chain 1: QVQLSQSGGGAVQPGKSLTLSCRAYGFHLFSYVVVWVRQTPQNGLEWVAGAASGGWPQEFMNSVRGRFSISRDDYTVSLQMNALRVDDSGLYFCAQERGLHRLDGAVKFGRWFRAWGQGSQVVVTS
chain 2: QSALTQPASVSGSPGQSITLSCTGADNSVSWYQVVPGRAPKLLIFEVNVRPSEVSDRFSGSKSGDTASLTISRLQIEDESDYYCVTRRGDVTYLFGSGTRVSVL
modifications: biotin (EZ-Link NHS-LC-Biotin) in the competition ELISA only | biotin (EZ-Link NHS-LC-Biotin) in the competition ELISA only
For B1, the Kd (in general, the equilibrium constant for the complex coming apart) in assay [1] came to 18.1 nM; in assay [2] it was 12.1 nM.
